Results published in patent US20110189093A1, “PROSTATE SPECIFIC MEMBRANE ANTIGEN ANTIBODIES AND ANTIGEN BINDING FRAGMENTS” (PROSCAN RX PHARMA, priority 2008, published 2011).

Key:
[1] = tested on: 30 different normal tissues; experiment: Immunohistochemistry on tissue microarrays of normal tissues
Description: (§1) Tissue and tumor specificity of mAbs: to compare the tissue and tumor specificity of monoclonal antibodies of the present invention, tissue microarrays of 30 different normal tissues (Biochain) and 22 different tumor types (Dako) including prostate cancer was used in order to characterize their recognition specificity. The immunohistochemistry was performed on antigen retrieved, formalin fixed, paraffin embedded material. Anti-PSMA mAbs J591 (ATCC HB-12126) and 7E11 (ATCC HB-10494) were used as references. Formalin fixed paraffin embedded […] sections were subjected to antigen retrieval in basic antigen retrieval solution (BD Pharmingen pH 9.5) in a microwavable pressure cooker for 10 min, cooled and equilibrated to 0.01M phosphate buffered saline (PBS) pH 7.4. Staining was carried out at room temperature in a humidified chamber. Endogenous peroxidases were inactivated with a 1% solution of H2O2 for 20 min, blocked with 5% normal goat serum (NGS) for 30 min and incubated with primary monoclonal antibodies (mAbs) diluted in PBS; 2% NGS overnight. Antibody binding to tissue sections was detected by the sequential addition of the following reagents followed by washing in PBS: goat anti-mouse IgG (H+L) (ICN) secondary antibody diluted 1:100 in PBS; 2% NGS for 1 hr, a complex of a bi-specific mAb mouse anti-peroxidase and horse radish peroxidase for 1 hr, and 3,3-diaminobenzidene tetrahydrochloride (DAB) at 0.6 mg/ml in PBS; 2% NGS; 0.01% H2O2 as chromogen. The primary antibodies were purified mAbs used at concentrations optimized in dilution experiments. […] Mouse IgG mAb was used at a concentration of 0.2 μg/ml and served as a negative control for the primary antibodies. Tissue samples included organ confined and metastatic prostate cancer, HGPIN and normal prostate tissues drawn from radical prostatectomies, transurethral resections and autopsy material.

22 different tumor types = experiment: Immunohistochemistry on tissue microarrays of tumor types
Description: as §1

B1: PSf42.1: anti-PSMA monoclonal antibody; light chain variable SEQ ID NO:45, heavy chain variable SEQ ID NO:46 (antibody, V domains shown)
VH: EVQLEESGAEFVRPGAAVKLSCTVSGLNIKDSYLHWVKQRPEQGLEWIGGIDPANGDVEYDPKFQGKAAITADTSSNTAYLRLSSLTSEDTAVYYCAPFPYWGAGTTVTVS
VL: DILMTQSPLTLSVIIGQPASFSCKSSHSLLHRDGRTYLNWLLQRPGQSPQRLIYLVSKLDSGVPDRFTGSGSGTDFTLKISRVEAEDLGVYYCWQGTHFPRTFGGGTKLEIKRA
[1]; Adipose
  No. of positive cases/total no. of cases studied: 0/2
[1]; Bladder
  No. of positive cases/total no. of cases studied: 0/2
[1]; Brain
  No. of positive cases/total no. of cases studied: 0/2
[1]; Breast
  No. of positive cases/total no. of cases studied: 0/2
[1]; Cerebullum
  No. of positive cases/total no. of cases studied: 0/2
[1]; Cervix
  No. of positive cases/total no. of cases studied: 0/2
[1]; Colon
  No. of positive cases/total no. of cases studied: 0/2
[1]; Diaphragm
  No. of positive cases/total no. of cases studied: 2/2
[1]; Duodenum
  No. of positive cases/total no. of cases studied: 0/2
[1]; Esophagus
  No. of positive cases/total no. of cases studied: 0/2
[1]; Gallbladder
  No. of positive cases/total no. of cases studied: 0/2
[1]; Heart
  No. of positive cases/total no. of cases studied: 0/2
[1]; Ileum
  No. of positive cases/total no. of cases studied: 0/2
[1]; Jejenum
  No. of positive cases/total no. of cases studied: 0/2
[1]; Kidney
  No. of positive cases/total no. of cases studied: 0/2
[1]; Liver
  No. of positive cases/total no. of cases studied: 0/2
[1]; Lung
  No. of positive cases/total no. of cases studied: 0/2
[1]; Ovary
  No. of positive cases/total no. of cases studied: 0/2
[1]; Pancreas
  No. of positive cases/total no. of cases studied: 0/2
[1]; Placenta
  No. of positive cases/total no. of cases studied: 0/4
[1]; Rectum
  No. of positive cases/total no. of cases studied: 0/2
[1]; Skeletal muscle
  No. of positive cases/total no. of cases studied: 2/2
[1]; Skin
  No. of positive cases/total no. of cases studied: 0/2
[1]; Spleen
  No. of positive cases/total no. of cases studied: 0/2
[1]; Stomach
  No. of positive cases/total no. of cases studied: 0/2
[1]; Testis
  No. of positive cases/total no. of cases studied: 0/2
[1]; Thymus
  No. of positive cases/total no. of cases studied: 0/2
[1]; Thyroid
  No. of positive cases/total no. of cases studied: 0/2
[1]; Tonsil
  No. of positive cases/total no. of cases studied: 0/2
[1]; Uterus
  No. of positive cases/total no. of cases studied: 0/2
22 different tumor types; Astrocytoma
  No. of positive cases/total no. of cases studied: 0/2
22 different tumor types; Breast carcinoma
  No. of positive cases/total no. of cases studied: 0/2
22 different tumor types; Carcinoid
  No. of positive cases/total no. of cases studied: 0/3
22 different tumor types; Colonic adenocarcinoma
  No. of positive cases/total no. of cases studied: 0/2
22 different tumor types; Epithelioid sarcoma
  No. of positive cases/total no. of cases studied: 0/1
22 different tumor types; Ewing's sarcoma
  No. of positive cases/total no. of cases studied: 0/1
22 different tumor types; Gastric carcinoma
  No. of positive cases/total no. of cases studied: 0/2
22 different tumor types; Hepatocellular carcinoma
  No. of positive cases/total no. of cases studied: 0/2
22 different tumor types; Hodgkin's lymphoma
  No. of positive cases/total no. of cases studied: 1/13
22 different tumor types; Leiomyoma
  No. of positive cases/total no. of cases studied: 0/2
22 different tumor types; Lung adeno carcinoma
  No. of positive cases/total no. of cases studied: 0/2
22 different tumor types; Lymphoma
  No. of positive cases/total no. of cases studied: 0/3
22 different tumor types; Malignant fibrous histiocytoma
  No. of positive cases/total no. of cases studied: 0/1
22 different tumor types; Melanoma
  No. of positive cases/total no. of cases studied: 0/3
22 different tumor types; Mesothelioma
  No. of positive cases/total no. of cases studied: 0/2
22 different tumor types; Ovarian carcinoma
  No. of positive cases/total no. of cases studied: 0/2
22 different tumor types; Pancreatic carcinoma
  No. of positive cases/total no. of cases studied: 0/2
22 different tumor types; Prostatic carcinoma
  No. of positive cases/total no. of cases studied: 1/1
22 different tumor types; Renal cell carcinoma
  No. of positive cases/total no. of cases studied: 0/2
22 different tumor types; Rhabdosarcoma
  No. of positive cases/total no. of cases studied: 0/2
22 different tumor types; Thyroid carcinoma
  No. of positive cases/total no. of cases studied: 0/2
22 different tumor types; Undifferentiated carcinoma
  No. of positive cases/total no. of cases studied: 0/4
